Source: US20070053894

What was measured:
[1] = molecular target: T1, Soluble human recombinant p97 (melanotransferrin)
T1 chain: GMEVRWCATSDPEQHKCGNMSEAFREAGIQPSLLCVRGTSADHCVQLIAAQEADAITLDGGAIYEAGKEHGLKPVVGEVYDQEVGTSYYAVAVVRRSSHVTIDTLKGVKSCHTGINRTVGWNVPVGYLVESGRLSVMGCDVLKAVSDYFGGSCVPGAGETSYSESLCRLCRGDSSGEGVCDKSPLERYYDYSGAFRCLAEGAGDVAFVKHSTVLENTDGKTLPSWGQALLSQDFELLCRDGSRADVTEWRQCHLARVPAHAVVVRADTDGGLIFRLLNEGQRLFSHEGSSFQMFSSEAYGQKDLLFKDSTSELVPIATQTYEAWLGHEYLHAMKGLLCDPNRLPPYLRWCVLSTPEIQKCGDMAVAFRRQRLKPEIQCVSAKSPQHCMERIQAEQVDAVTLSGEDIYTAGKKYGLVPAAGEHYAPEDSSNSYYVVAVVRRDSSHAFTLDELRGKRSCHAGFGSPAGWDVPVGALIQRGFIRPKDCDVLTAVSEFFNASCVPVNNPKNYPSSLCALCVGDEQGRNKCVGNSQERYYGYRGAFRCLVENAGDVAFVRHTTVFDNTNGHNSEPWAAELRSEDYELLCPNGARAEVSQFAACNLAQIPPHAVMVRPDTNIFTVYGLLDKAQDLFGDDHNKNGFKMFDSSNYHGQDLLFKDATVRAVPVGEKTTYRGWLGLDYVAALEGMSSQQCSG

plasminogen, P00747 = molecular target: T2, plasminogen, P00747
T2 chain: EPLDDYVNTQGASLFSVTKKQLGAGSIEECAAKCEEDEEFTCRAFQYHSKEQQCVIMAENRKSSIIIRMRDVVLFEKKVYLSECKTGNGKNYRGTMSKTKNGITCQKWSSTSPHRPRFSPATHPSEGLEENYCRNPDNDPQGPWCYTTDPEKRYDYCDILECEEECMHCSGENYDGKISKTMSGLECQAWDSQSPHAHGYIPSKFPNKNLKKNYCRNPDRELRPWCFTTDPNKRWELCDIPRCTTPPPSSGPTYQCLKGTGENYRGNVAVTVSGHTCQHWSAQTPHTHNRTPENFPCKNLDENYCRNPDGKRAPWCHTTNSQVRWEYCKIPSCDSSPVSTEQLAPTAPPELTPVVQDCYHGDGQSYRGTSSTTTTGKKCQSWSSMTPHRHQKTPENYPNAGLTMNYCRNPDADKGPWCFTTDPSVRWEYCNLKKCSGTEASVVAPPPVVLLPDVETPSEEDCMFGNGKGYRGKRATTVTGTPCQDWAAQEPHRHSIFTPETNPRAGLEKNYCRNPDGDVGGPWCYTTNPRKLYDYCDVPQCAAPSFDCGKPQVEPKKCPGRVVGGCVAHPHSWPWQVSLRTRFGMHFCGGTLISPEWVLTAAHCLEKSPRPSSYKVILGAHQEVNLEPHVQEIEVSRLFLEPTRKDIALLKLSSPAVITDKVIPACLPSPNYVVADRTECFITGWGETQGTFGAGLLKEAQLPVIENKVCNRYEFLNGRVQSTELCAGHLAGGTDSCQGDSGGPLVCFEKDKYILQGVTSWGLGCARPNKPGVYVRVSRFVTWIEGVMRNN

B1: tissue plasminogen activator (tPA) (protein)
chain: SYQVICRDEKTQMIYQQHQSWLRPVLRSNRVEYCWCNSGRAQCHSVPVKSCSEPRCFNGGTCQQALYFSDFVCQCPEGFAGKCCEIDTRATCYEDQGISYRGTWSTAESGAECTNWNSSALAQKPYSGRRPDAIRLGLGNHNYCRNPDRDSKPWCYVFKAGKYSSEFCSTPACSEGNSDCYFGNGSAYRGTHSLTESGASCLPWNSMILIGKVYTAQNPSAQALGLGKHNYCRNPDGDAKPWCHVLKNRRLTWEYCDVPSCSTCGLRQYSQPQFRIKGGLFADIASHPWQAAIFAKHRRSPGERFLCGGILISSCWILSAAHCFQERFPPHHLTVILGRTYRVVPGEEEQKFEVEKYIVHKEFDDDTYDNDIALLQLKSDSSRCAQESSVVRTVCLPPADLQLPDWTECELSGYGKHEALSPFYSERLKEAHVRLYPSSRCTSQHLLNRTVTDNMLCAGDTRSGGPQANLHDACQGDSGGPLVCLNDGRMTLVGIISWGLGCGQKDVPGVYTKVTNYLDWIRDNMRP
- VLK-pNA hydrolysis by 75 nM tPA with 70 nM p97, without plasminogen [1]: Addition of p97 to tPA elicits no observable effect
- apparent Km of tPA for plasminogen, with 50 nM p97 (plasminogen, P00747): decreases the apparent Km of tPA for plasminogen by 5-fold from 280 to 52 nM
- apparent Km of tPA for plasminogen, without p97 (plasminogen, P00747): decreases the apparent Km of tPA for plasminogen by 5-fold from 280 to 52 nM
